# Experimental data published in US20080027145A1, “Therapeutic Molecules and Methods for Generating and/or Selecting Same” (priority 2004, published 2008).
# Assays:
# [1] = target: mouse Mcl-1 ΔN151 ΔC23 (mouse) (UniProt P97287); test: from the solution competition affinities
# [2] = target: mouse Mcl-1 ΔN151 ΔC23 (mouse) (UniProt P97287); test: Biacore solution competition against immobilised mouse wtBimBH3
# mouse A1 ΔC20 (mouse) = mouse A1 ΔC20 (mouse) (UniProt Q07440); test: as above
# [3] = target: m ^wtBimBH3 (83-108) (mouse); test: SPR (Biacore 3000), protein over immobilised m wtBimBH3
# Sequence of m ^wtBimBH3 (83-108) (mouse) (peptide, as listed by the source limits assumed): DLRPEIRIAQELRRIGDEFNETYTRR
# Sequence of mouse A1 ΔC20 (mouse) (Q07440 other isoform, or with tags, fused parts or gaps mutant): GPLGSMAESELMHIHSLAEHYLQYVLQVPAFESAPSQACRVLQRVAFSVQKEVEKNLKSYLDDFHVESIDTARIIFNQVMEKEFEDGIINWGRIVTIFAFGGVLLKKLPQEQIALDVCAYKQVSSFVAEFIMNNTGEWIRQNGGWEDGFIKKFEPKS
# Sequence of mouse Mcl-1 ΔN151 ΔC23 (mouse) (P97287 other isoform, or with tags, fused parts or gaps mutant): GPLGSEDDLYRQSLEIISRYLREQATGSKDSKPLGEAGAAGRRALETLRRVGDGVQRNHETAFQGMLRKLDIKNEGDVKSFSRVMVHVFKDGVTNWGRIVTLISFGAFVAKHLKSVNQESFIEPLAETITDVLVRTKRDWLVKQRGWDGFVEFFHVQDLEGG
fold weaker binding than to Bcl-xL [1] [fold],IC50 [2] [nM],IC50 (mouse A1 ΔC20 (mouse)) [nM],Kd [3] [nM],koff [3] [s⁻¹],kon [3] [M⁻¹ s⁻¹],Substance
40,1700,58,–,–,–,"Bik (51-75) BH3 peptide, human"
–,370,46,–,–,–,"Hrk (26-51) BH3 peptide, human"
–,5,5.7,–,–,–,"Puma (130-155) BH3 peptide, human"
–,–,–,0.5,0.00014,290000,mouse A1 ΔC20 (from UniProt Q07440 1-152)
–,–,–,0.2,0.00026,1.3e+06,mouse Mcl-1 ΔN151 ΔC23 (from UniProt P97287 152-308)
